From the supplement of paper PMC9112550, “Optimization of the antimicrobial peptide Bac7 by deep mutational scanning” (BMC Biology, 2022) come the findings set out here.

For this series, the system named is Escherichia coli TOP10. The series is described as follows: shrunken log2 fold change of peptide-encoding DNA abundance (4.5 h post-induction vs induction); higher = less antimicrobial activity (less host growth inhibition). As to conditions: time post-induction: 4.5 h; library: site-saturation at positions 5, 18, 19, 20.
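Also: peptides expressed intracellularly from a pBAD plasmid library in pooled LB shake-flask culture, induced with 0.3% L-arabinose, DNA abundance read by NGS, three biological replicates, DESeq2 with apeglm shrinkage.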

Turning to RRIRARPPRLPRPRPRPKNPPRP, the “shrunken log2 fold change” value was found to be 0.196.
For RRIRQRPPRLPRPRPRPIRSPRP, the “shrunken log2 fold change” value was -0.0132.
For the sequence RRIRDRPPRLPRPRPRPVWCPRP, the “shrunken log2 fold change” value stood at 0.162.
For the sequence RRIRYRPPRLPRPRPRPMFWPRP, the “shrunken log2 fold change” value is -0.0534.
In the case of RRIRIRPPRLPRPRPRPSAHPRP it was -0.202.
In the case of RRIRARPPRLPRPRPRPSNGPRP it was -0.318; in that of RRIRIRPPRLPRPRPRPHYIPRP, -0.155; in that of RRIRDRPPRLPRPRPRPPIWPRP, 0.305.
In the case of RRIRVRPPRLPRPRPRPGCTPRP it was -0.246; in that of RRIRARPPRLPRPRPRPPEFPRP, 0.558; in that of RRIRVRPPRLPRPRPRPWATPRP, -0.122.
Regarding RRIRHRPPRLPRPRPRPVGDPRP, the “shrunken log2 fold change” value is -0.206.
For RRIRFRPPRLPRPRPRPQVKPRP, the “shrunken log2 fold change” value was -0.279.
In the case of RRIRARPPRLPRPRPRPLGEPRP it was 0.896.
RRIRSRPPRLPRPRPRPVNEPRP: the “shrunken log2 fold change” value was -0.0746.
For the sequence RRIRYRPPRLPRPRPRPLNDPRP, the “shrunken log2 fold change” value was -0.0303.
With RRIRNRPPRLPRPRPRPMKNPRP, the “shrunken log2 fold change” value is -0.238.
As for RRIRARPPRLPRPRPRPCLHPRP, the “shrunken log2 fold change” value was found to be 1.24.
In the case of RRIRNRPPRLPRPRPRPYNKPRP, the “shrunken log2 fold change” value is -0.963.
In the case of RRIRNRPPRLPRPRPRPERAPRP it was 0.362; in that of RRIRRRPPRLPRPRPRPRKRPRP, 0.859; in that of RRIRRRPPRLPRPRPRPTRHPRP, 0.783.
In the case of RRIRRRPPRLPRPRPRPTGYPRP it was 0.246; in that of RRIRNRPPRLPRPRPRPASPPRP, 0.154; in that of RRIRWRPPRLPRPRPRPQRHPRP, 0.163.
For the sequence RRIRWRPPRLPRPRPRPFQRPRP, the “shrunken log2 fold change” value came to 0.00938.
In the case of RRIRRRPPRLPRPRPRPYAMPRP it was -0.121; in that of RRIRQRPPRLPRPRPRPLGVPRP, 0.0233.
For the sequence RRIRARPPRLPRPRPRPIQSPRP, the “shrunken log2 fold change” value was -0.035.
For the sequence RRIRFRPPRLPRPRPRPGMLPRP, the “shrunken log2 fold change” value is -0.169.
In the case of RRIRDRPPRLPRPRPRPQQVPRP it was 0.0253; in that of RRIRDRPPRLPRPRPRPNHGPRP, 1.15; in that of RRIRIRPPRLPRPRPRPGDEPRP, -0.0396.
On to RRIRIRPPRLPRPRPRPPFFPRP, for which the “shrunken log2 fold change” value stood at 0.41.
In the case of RRIRERPPRLPRPRPRPSQRPRP it was -0.0321; in that of RRIRHRPPRLPRPRPRPDSCPRP, -0.164.
Regarding RRIRRRPPRLPRPRPRPCCFPRP, the “shrunken log2 fold change” value turned out to be 0.151.
Take RRIRRRPPRLPRPRPRPELEPRP: the “shrunken log2 fold change” value came out at 1.16.
Turning to RRIRHRPPRLPRPRPRPEKMPRP, the “shrunken log2 fold change” value was -0.0669.
In the case of RRIRQRPPRLPRPRPRPPHHPRP it was 0.972.
On to RRIRDRPPRLPRPRPRPCCAPRP, for which the “shrunken log2 fold change” value turned out to be 0.58.
In the case of RRIRCRPPRLPRPRPRPCMGPRP it was -0.241.
In the case of RRIRRRPPRLPRPRPRPQGSPRP it was 0.0234.
In the case of RRIRKRPPRLPRPRPRPWTCPRP it was -0.0961; in that of RRIRKRPPRLPRPRPRPWYMPRP, -0.158; in that of RRIRTRPPRLPRPRPRPVETPRP, 0.306.
For RRIRTRPPRLPRPRPRPPPYPRP, the “shrunken log2 fold change” value was -0.000222.
Regarding RRIRQRPPRLPRPRPRPAHLPRP, the “shrunken log2 fold change” value was 0.362.
Turning to RRIRCRPPRLPRPRPRPELGPRP, the “shrunken log2 fold change” value was 0.211.
In the case of RRIRMRPPRLPRPRPRPIQFPRP it was -0.318; in that of RRIRNRPPRLPRPRPRPNYFPRP, 0.169.
In the case of RRIRYRPPRLPRPRPRPMWVPRP it was -0.0664; in that of RRIRPRPPRLPRPRPRPIHTPRP, -0.177.
As for RRIRSRPPRLPRPRPRPPVHPRP, the “shrunken log2 fold change” value was 0.0185.
Take RRIRNRPPRLPRPRPRPSGEPRP: the “shrunken log2 fold change” value was 0.155.
In the case of RRIRYRPPRLPRPRPRPHWCPRP it was -0.0867; in that of RRIRGRPPRLPRPRPRPTCFPRP, 1.14; in that of RRIRGRPPRLPRPRPRPWMFPRP, 0.0448.
For the sequence RRIRQRPPRLPRPRPRPLALPRP, the “shrunken log2 fold change” value stood at 0.318.
In the case of RRIRARPPRLPRPRPRPIQNPRP it was 0.376.
RRIRNRPPRLPRPRPRPSPEPRP: the “shrunken log2 fold change” value was -0.123.
In the case of RRIRNRPPRLPRPRPRPMPIPRP it was -0.0173; in that of RRIRHRPPRLPRPRPRPIREPRP, -0.00145.
Take RRIRWRPPRLPRPRPRPDDWPRP: the “shrunken log2 fold change” value amounted to 0.288.
In the case of RRIRWRPPRLPRPRPRPGEYPRP it was 0.147; in that of RRIRMRPPRLPRPRPRPFQPPRP, 0.0604; in that of RRIRMRPPRLPRPRPRPALYPRP, 0.765.
In the case of RRIRFRPPRLPRPRPRPHQLPRP it was -0.374; in that of RRIRHRPPRLPRPRPRPFVCPRP, -0.453.
In the case of RRIRTRPPRLPRPRPRPPRLPRP it was 0.343; in that of RRIRWRPPRLPRPRPRPYYMPRP, -0.258.
Take RRIRKRPPRLPRPRPRPQGLPRP: the “shrunken log2 fold change” value is 0.256.
Regarding RRIRWRPPRLPRPRPRPTGDPRP, the “shrunken log2 fold change” value worked out at 0.241.
On to RRIRERPPRLPRPRPRPTQKPRP, for which the “shrunken log2 fold change” value worked out at 0.337.
RRIRFRPPRLPRPRPRPDETPRP: the “shrunken log2 fold change” value was found to be 0.145.
For RRIRYRPPRLPRPRPRPWDPPRP, the “shrunken log2 fold change” value was -0.0966.
In the case of RRIRSRPPRLPRPRPRPTHIPRP it was -0.165; in that of RRIRMRPPRLPRPRPRPVSFPRP, 0.000809.
Take RRIRMRPPRLPRPRPRPGEKPRP: the “shrunken log2 fold change” value turned out to be 0.00581.
In the case of RRIRRRPPRLPRPRPRPRETPRP it was 1.13.
RRIRIRPPRLPRPRPRPRDWPRP: the “shrunken log2 fold change” value is 0.429.
RRIRWRPPRLPRPRPRPTSVPRP: the “shrunken log2 fold change” value amounted to 0.233.
On to RRIRHRPPRLPRPRPRPCFTPRP, for which the “shrunken log2 fold change” value is -0.838.
On to RRIRSRPPRLPRPRPRPFCNPRP, for which the “shrunken log2 fold change” value was -0.106.
In the case of RRIRHRPPRLPRPRPRPWFCPRP it was -0.583.
In the case of RRIRTRPPRLPRPRPRPLPTPRP, the “shrunken log2 fold change” value turned out to be 0.368.
For the sequence RRIRYRPPRLPRPRPRPVASPRP, the “shrunken log2 fold change” value was -0.163.
In the case of RRIRPRPPRLPRPRPRPHVVPRP it was -0.136; in that of RRIRMRPPRLPRPRPRPSFVPRP, -0.0144.
In the case of RRIRPRPPRLPRPRPRPPSLPRP it was 0.381; in that of RRIRMRPPRLPRPRPRPAFQPRP, 0.0845; in that of RRIRGRPPRLPRPRPRPINHPRP, -0.0462.
In the case of RRIRERPPRLPRPRPRPHWHPRP it was -0.298.
In the case of RRIRSRPPRLPRPRPRPYSRPRP, the “shrunken log2 fold change” value was -0.00979.
Take RRIRNRPPRLPRPRPRPCIMPRP: the “shrunken log2 fold change” value was -0.135.
In the case of RRIRQRPPRLPRPRPRPGHDPRP it was -0.112.
Consider RRIRTRPPRLPRPRPRPHEEPRP, for which the “shrunken log2 fold change” value was 0.0127.
In the case of RRIRRRPPRLPRPRPRPDWHPRP it was -0.0494.
With RRIRARPPRLPRPRPRPNFAPRP, the “shrunken log2 fold change” value stood at 0.467.
Turning to RRIRGRPPRLPRPRPRPYICPRP, the “shrunken log2 fold change” value is -0.423.
In the case of RRIRERPPRLPRPRPRPIDPPRP it was 0.0954.
In the case of RRIRCRPPRLPRPRPRPNRVPRP, the “shrunken log2 fold change” value was -0.206.
In the case of RRIRLRPPRLPRPRPRPCHGPRP it was -0.0309; in that of RRIRARPPRLPRPRPRPWWHPRP, -0.0749.
Regarding RRIRIRPPRLPRPRPRPTHPPRP, the “shrunken log2 fold change” value is 0.225.
Regarding RRIRCRPPRLPRPRPRPNQPPRP, the “shrunken log2 fold change” value was -0.0425.
On to RRIRFRPPRLPRPRPRPYTEPRP, for which the “shrunken log2 fold change” value is -0.631.
In the case of RRIRIRPPRLPRPRPRPDNQPRP it was -1.03.
In the case of RRIRTRPPRLPRPRPRPKNRPRP it was -0.0821.
In the case of RRIRPRPPRLPRPRPRPSCDPRP it was -0.273; in that of RRIRRRPPRLPRPRPRPYRHPRP, -0.265; in that of RRIRCRPPRLPRPRPRPLTDPRP, -0.285.
Turning to RRIRIRPPRLPRPRPRPSLVPRP, the “shrunken log2 fold change” value came out at 0.0916.
In the case of RRIRARPPRLPRPRPRPLNMPRP it was -0.502; in that of RRIRLRPPRLPRPRPRPGGQPRP, 0.319.
In the case of RRIRVRPPRLPRPRPRPKPFPRP it was 0.00969; in that of RRIRTRPPRLPRPRPRPPMQPRP, 0.0806; in that of RRIRCRPPRLPRPRPRPLEHPRP, -0.167.
As for RRIRYRPPRLPRPRPRPRLFPRP, the “shrunken log2 fold change” value was -0.194.
In the case of RRIRCRPPRLPRPRPRPACDPRP it was 0.389.
With RRIRHRPPRLPRPRPRPYGMPRP, the “shrunken log2 fold change” value is -0.0262.
In the case of RRIRGRPPRLPRPRPRPCVEPRP it was 0.953; in that of RRIRPRPPRLPRPRPRPDLFPRP, 0.0947.
Turning to RRIRVRPPRLPRPRPRPFYAPRP, the “shrunken log2 fold change” value is -0.357.
As for RRIRRRPPRLPRPRPRPMHVPRP, the “shrunken log2 fold change” value came to 0.281.
